Data as given in publication PMC5358978, “Nuclear export receptor CRM1 recognizes diverse conformations in nuclear export signals” (eLife, 2017).

Legend:
[1] = target: ^HsCRM1 (Homo sapiens, UniProt O14980); test: Differential bleaching, competition titration of MBP-NES to FITC-PKI^NES and CRM1 with excess RanGTP; format: binding
[2] = test system: wild type ^HsCRM1; test: Pull-down binding assay with immobilized GST-NESs; parameters: species or system human; details: ~5 µg immobilized GST-NESs, 7.5 µM ^ScRanGTP, 2.5 µM CRM1, 200 µL
[3] = test system: CRM1; details: ref Xu et al., 2012c, 2015; cited from earlier work
Description: What then are CRM1 groove features that selectively recognize the key NES features? Arrangement of hydrophobic pockets in the groove likely selects NESs with suitably placed Φ residues. Groove shape, tapering and most constricted at ^ScCRM1 Lys579 (^HsCRM1 Lys568), likely selects for NES helices that transition to strands or NES helices that end (Figure 3C). Is groove-constricting ^HsCRM1 Lys568 perhaps key for differentiating active from false positive NES sequences? We tested mutants ^HsCRM1(K568A) and ^HsCRM1(K568M) for interactions with three previously identified false positive NESs that ...

[4] = test system: HeLa cells; test: In vivo NES activity assay, EYFP2-SV40^NLS-NES reporter, spinning disk confocal microscope; format: cell-based; details: EYFP2-SV40^NLS-FMRP-1b^NES expressed in HeLa cells; 60X
Description: Figure 2. Structures of NESs with non-helical sequence patterns. (A–E) FMRP^NES (light orange), SMAD4^NES (salmon), HDAC^NES (slate), Pax^NES (pale cyan) and FMRP-1b^NES (deep teal) bound to the ^ScCRM1 groove. […] Average displacements of each Φ Cα in the eight NESs (including mDia2^NES, CDC7^NES, X11L2^NES in Figure 1) from the equivalent Φ Cα of PKI^NES(Ф0L) are 1.3 ± 0.6 (Φ4), 0.8 ± 0.5 (Φ3), 0.7 ± 0.4 (Φ2), 0.9 ± 0.3 (Φ1) and 1.8 ± 0.9 (Φ0) Å. DOI: http://dx.doi.org/10.7554/eLife.23961.012 Figure 2—figure supplement 1. Electron densities of the NES peptides. […] DOI: http://dx.doi.org/10.7554/eLife.23961.013 [drawing 7] Figure 2—figure supplement 2. Engineering class 1b NESs. (A) Sequences of class 1b NESs generated from PKI^NES and FMRP^NES. […] The reactions were extensively washed and visualized with SDS/PAGE and Coomassie staining. (B) Leptomycin B (LMB) sensitive nuclear export activity of FMRP-1b^NES was verified by expressing EYFP2-SV40^NLS-FMRP-1b^NES in HeLa cells and imaged with spinning disk confocal microscope (60X). DOI: http://dx.doi.org/10.7554/eLife.23961.014 [drawing 8]

[5] = MBP-NES competes with FITC-PKI^NES for CRM1, excess RanGTP, triplicate, brackets = 68.3% confidence interval

Substance	Kd [1, 5]	other results
MBP-Pax^NES: MBP fusion of the NES of Paxillin	0.67 µM	
YLKEVDQLRALER [MBP-FMRP-1b^NES mutant]		CRM1 binding in words, differential bleaching competition ([1]; excess RanGTP): does not bind CRM1; Kd ([1]; triplicate competition titrations, brackets = 68.3% confidence level, U = undetermined, NB = not binding): 1700 µM
173KTLSEVEESISTLISQPN^190 [COMMD1^pep, False positive NES peptide from COMM domain-containing protein 1, class 3 match; GST fusion in pull-down]		Pull-down binding to wild type ^HsCRM1 [2]: does not bind; CRM1 binding of false positive NESs that match NES consensus [3]: do not bind CRM1
MBP-X11L2^NES: MBP fusion of the NES from beta-amyloid binding protein X11L2	1.5 µM	
MBP-HDAC5^NES: MBP fusion of the NES of Histone deacetylase 5	1.6 µM	

Continued, in another order:

Kd [1, 5]	Substance	other results
20 µM	MBP-CDC7^NES: MBP fusion of the NES of cell division cycle 7-related protein kinase	
4.6 µM	MBP-SMAD4^NES: MBP fusion of the NES of Mothers against decapentaplegic homolog 4 protein	
2 µM	MBP-FMRP^NES: MBP fusion of the class 2 NES of fragile X mental retardation protein	
3 µM	GGS-YLKEVDQLRALERLQID [MBP-FMRP-1b^NES, Engineered class 1b NES, an alanine added to FMRP^NES; tested as MBP fusion and as EYFP2-SV40^NLS reporter]	Leptomycin B (LMB) sensitive nuclear export activity [4]: verified
